Results from publication PMC6853996, “Assaying Homodimers of NF-κB in Live Single Cells” (Frontiers in Immunology, 2019).
Several values for one entry are separate records, joined by “and”; a condition that tells them apart may be missing. Equal values may be shown once.

Legend:
[1] = target: T1, mEGFP-RelA (fluorescent fusion protein expressed from the pSF-EF1α-Ub-Neo plasmid), Q04207; experiment: Number and Brightness (N&B) live-cell confocal fluorescence fluctuation microscopy; nuclei of live primary mouse adult fibroblasts (WT or p50/c-Rel double-KO) transiently expressing mEGFP-RelA, 100 ng/mL LPS; brightness ε relative to the monomer control; untagged endogenous RelA present; settings: remark: other sources report otherwise
T1 chain: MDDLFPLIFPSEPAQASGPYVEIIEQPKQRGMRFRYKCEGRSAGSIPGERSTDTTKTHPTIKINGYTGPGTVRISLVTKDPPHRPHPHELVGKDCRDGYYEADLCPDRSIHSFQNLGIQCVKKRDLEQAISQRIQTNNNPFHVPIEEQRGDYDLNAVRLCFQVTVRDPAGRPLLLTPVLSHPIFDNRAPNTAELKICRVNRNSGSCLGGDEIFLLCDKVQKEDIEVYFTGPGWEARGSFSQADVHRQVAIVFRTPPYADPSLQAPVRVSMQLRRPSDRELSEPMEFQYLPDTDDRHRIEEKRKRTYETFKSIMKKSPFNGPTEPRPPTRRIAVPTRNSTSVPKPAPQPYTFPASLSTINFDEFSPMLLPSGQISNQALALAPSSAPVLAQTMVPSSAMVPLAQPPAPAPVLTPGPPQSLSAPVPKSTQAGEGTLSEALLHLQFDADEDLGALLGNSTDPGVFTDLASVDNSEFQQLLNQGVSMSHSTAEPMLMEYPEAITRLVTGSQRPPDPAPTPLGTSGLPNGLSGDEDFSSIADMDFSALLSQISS

[2] = target: T1, mEGFP-RelA (fluorescent fusion protein …); experiment: Number and Brightness (N&B) live-cell confocal fluorescence fluctuation microscopy; nuclei of live NIH3T3 fibroblasts transiently or stably expressing the mEGFP fusion, 37°C; brightness ε relative to the mEGFP-mutGR monomer control; stimuli 10 ng/mL TNFα, 100 ng/mL LPS, 100 nM Dex, dihydrotestosterone or progesterone; pre-treatments WFA (0.5 or 1 μM, 1 h) or TSA (2 h) before LPS; untagged endogenous protein present; settings: remark: other sources report otherwise
[3] = target: T2, mEGFP-RelA from the knock-in (KI) mouse (mEGFP inserted at the endogenous RelA locus) (mouse), Q04207; experiment: Number and Brightness (N&B) live-cell confocal fluorescence fluctuation microscopy; nuclei of live primary MAFs from the mEGFP-RelA knock-in mouse, treated with TNFα or LPS; all RelA tagged; settings: remark: other sources report otherwise
T2 chain: T1 chain

[4] = target: T3, mEGFP-GR (mEGFP-tagged wild-type glucocorticoid receptor), P06537; experiment: Number and Brightness (N&B) live-cell confocal fluorescence fluctuation microscopy; nuclei of live NIH3T3 fibroblasts transiently or stably expressing the mEGFP fusion, 37°C; brightness ε relative to the mEGFP-mutGR monomer control; stimuli 10 ng/mL TNFα, 100 ng/mL LPS, 100 nM Dex, dihydrotestosterone or progesterone; pre-treatments WFA (0.5 or 1 μM, 1 h) or TSA (2 h) before LPS; untagged endogenous protein present; settings: remark: other sources report otherwise
T3 chain: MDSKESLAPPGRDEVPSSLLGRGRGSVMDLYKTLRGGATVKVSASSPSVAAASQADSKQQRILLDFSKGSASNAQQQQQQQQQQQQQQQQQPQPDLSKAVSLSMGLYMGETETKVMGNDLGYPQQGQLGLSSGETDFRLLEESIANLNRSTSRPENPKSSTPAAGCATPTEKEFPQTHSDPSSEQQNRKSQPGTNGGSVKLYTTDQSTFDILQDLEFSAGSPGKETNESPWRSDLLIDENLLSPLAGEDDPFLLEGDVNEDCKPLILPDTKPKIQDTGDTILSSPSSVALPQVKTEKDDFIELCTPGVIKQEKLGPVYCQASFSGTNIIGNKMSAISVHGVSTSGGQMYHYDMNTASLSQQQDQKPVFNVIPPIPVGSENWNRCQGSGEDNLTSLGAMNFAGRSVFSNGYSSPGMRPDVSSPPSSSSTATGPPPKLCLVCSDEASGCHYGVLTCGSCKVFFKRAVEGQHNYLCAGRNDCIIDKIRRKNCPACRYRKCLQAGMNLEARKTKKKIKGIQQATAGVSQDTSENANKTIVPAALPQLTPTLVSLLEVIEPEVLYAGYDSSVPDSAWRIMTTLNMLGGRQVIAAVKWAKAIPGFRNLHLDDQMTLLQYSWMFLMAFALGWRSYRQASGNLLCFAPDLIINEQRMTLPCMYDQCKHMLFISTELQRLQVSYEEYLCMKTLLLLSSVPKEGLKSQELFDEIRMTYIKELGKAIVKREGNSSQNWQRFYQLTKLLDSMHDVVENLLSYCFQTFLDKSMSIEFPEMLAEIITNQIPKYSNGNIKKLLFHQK

[5] = target: the molecule itself; experiment: as above

B1: mEGFP-RelA (fluorescent fusion protein expressed from the pSF-EF1α-Ub-Neo plasmid), Q04207 1-549 (natural protein)
chain: T1 chain
**Q.** With B1 as the binder, how does the nuclear brightness (ε) relative to monomer control; WT primary MAFs, LPS [1] read?
**A.** 1.29

**Q.** And the nuclear brightness (ε) relative to monomer control; p50/c-Rel double-KO primary MAFs, LPS [1]?
**A.** 1.31

**Q.** And the percent of RelA-containing dimers in the nucleus that are homodimers (estimated from ε); WT primary MAFs, LPS [1]?
**A.** 20%

**Q.** And the median nuclear brightness (ε) relative to monomer control; stably transfected 3T3, LPS [2]?
**A.** 1.75

**Q.** And the median nuclear brightness (ε) relative to monomer control; stably transfected 3T3, TNFα [2]?
**A.** 1.61

**Q.** And the median nuclear brightness (ε) relative to monomer control; transiently transfected 3T3, TNFα [2]?
**A.** 1.52

**Q.** And the nuclear brightness (ε); stably transfected 3T3, 0.5 μM WFA before LPS [2]?
**A.** 1.57

**Q.** What about the nuclear brightness (ε); stably transfected 3T3, 1 μM WFA before LPS [2] of the same binder?
**A.** 1.61

**Q.** And the nuclear brightness (ε); stably transfected 3T3, TSA before LPS (concentration not given) [2]?
**A.** 1.42 and 1.58

**Q.** What about the percent dimers (estimated from ε); stably transfected 3T3, LPS [2] of the same binder?
**A.** 60%

**Q.** And the percent dimers (estimated from ε); stably transfected 3T3, TNFα [2]?
**A.** 43%

**Q.** What about the percent of RelA dimer species that are RelA homodimers (estimated from ε); transiently transfected 3T3, TNFα [2] of the same binder?
**A.** 35%

B2: mEGFP-RelA from the knock-in (KI) mouse (mEGFP inserted at the endogenous RelA locus), Q04207 1-549 (natural protein)
chain: T1 chain
**Q.** With B2 as the binder, how does the percent of RelA dimer species that are RelA homodimers; knock-in MAFs, TNFα or LPS [3] read?
**A.** < 35%

B3: mEGFP-GR (mEGFP-tagged wild-type glucocorticoid receptor), P06537 1-792 (natural protein)
chain: T3 chain
**Q.** Which nuclear brightness (ε) relative to monomer control; transiently transfected 3T3, Dex [4] does the source give for B3 here?
**A.** 1.52

B4: mEGFP-PR (mEGFP-tagged progesterone receptor) (natural protein, UniProt P06401 1-933, looked up)
chain: MTELKAKGPRAPHVAGGPPSPEVGSPLLCRPAAGPFPGSQTSDTLPEVSAIPISLDGLLFPRPCQGQDPSDEKTQDQQSLSDVEGAYSRAEATRGAGGSSSSPPEKDSGLLDSVLDTLLAPSGPGQSQPSPPACEVTSSWCLFGPELPEDPPAAPATQRVLSPLMSRSGCKVGDSSGTAAAHKVLPRGLSPARQLLLPASESPHWSGAPVKPSPQAAAVEVEEEDGSESEESAGPLLKGKPRALGGAAAGGGAAAVPPGAAAGGVALVPKEDSRFSAPRVALVEQDAPMAPGRSPLATTVMDFIHVPILPLNHALLAARTRQLLEDESYDGGAGAASAFAPPRSSPCASSTPVAVGDFPDCAYPPDAEPKDDAYPLYSDFQPPALKIKEEEEGAEASARSPRSYLVAGANPAAFPDFPLGPPPPLPPRATPSRPGEAAVTAAPASASVSSASSSGSTLECILYKAEGAPPQQGPFAPPPCKAPGASGCLLPRDGLPSTSASAAAAGAAPALYPALGLNGLPQLGYQAAVLKEGLPQVYPPYLNYLRPDSEASQSPQYSFESLPQKICLICGDEASGCHYGVLTCGSCKVFFKRAMEGQHNYLCAGRNDCIVDKIRRKNCPACRLRKCCQAGMVLGGRKFKKFNKVRVVRALDAVALPQPVGVPNESQALSQRFTFSPGQDIQLIPPLINLLMSIEPDVIYAGHDNTKPDTSSSLLTSLNQLGERQLLSVVKWSKSLPGFRNLHIDDQITLIQYSWMSLMVFGLGWRSYKHVSGQMLYFAPDLILNEQRMKESSFYSLCLTMWQIPQEFVKLQVSQEEFLCMKVLLLLNTIPLEGLRSQTQFEEMRSSYIRELIKAIGLRQKGVVSSSQRFYQLTKLLDNLHDLVKQLHLYCLNTFIQSRALSVEFPEMMSEVIAAQLPKILAGMVKPLLFHKK
notes: progesterone receptor; Assayed in cells treated with progesterone; source: fibroblasts (immortalized), transiently transfected, in live cells
**Q.** How did the “nuclear brightness (ε) relative to monomer control; transiently transfected fibroblasts, progesterone” value [5] turn out when B4 was run?
**A.** 2.07
